Assay results: doi:10.1101/2020.11.04.368837 (bioRxiv, 2020)

B1: recombinant human TRAP1 (mitochondrial Hsp90), wild type (natural protein, UniProt Q12931 60-704, looked up)
chain: STQTAEDKEEPLHSIISSTESVQGSTSKHEFQAETKKLLDIVARSLYSEKEVFIRELISNASDALEKLRHKLVSDGQALPEMEIHLQTNAEKGTITIQDTGIGMTQEELVSNLGTIARSGSKAFLDALQNQAEASSKIIGQFGVGFYSAFMVADRVEVYSRSAAPGSLGYQWLSDGSGVFEIAEASGVRTGTKIIIHLKSDCKEFSSEARVRDVVTKYSNFVSFPLYLNGRRMNTLQAIWMMDPKDVREWQHEEFYRYVAQAHDKPRYTLHYKTDAPLNIRSIFYVPDMKPSMFDVSRELGSSVALYSRKVLIQTKATDILPKWLRFIRGVVDSEDIPLNLSRELLQESALIRKLRDVLQQRLIKFFIDQSKKDAEKYAKFFEDYGLFMREGIVTATEQEVKEDIAKLLRYESSALPSGQLTSLSEYASRMRAGTRNIYYLCAPNRHLAEHSPYYEAMKKKDTEVLFCFEQFDELTLLHLREFDKKKLISVETDIVVDHYKEEKFEDRSPAAECLSEKETEELMAWMRNVLGSRVTNVKVTLRLDTHPAMVTVLEMGAARHFLRMQQLAKTQEERAQLLQPTLEINPRHALIKKLNQLRASEPGLAQLLVDQIYENAMIAAGLVDDPRAMVGRLNELLVKALERH
B2: TRAP1 fused with SpyCatcher at the C-terminus (TRAP1_(SpyCatcher)) (natural protein, human, UniProt Q12931 60-704, looked up)
chain: B1 chain

Assays:
AUC = biological target: the molecule itself; assay: AUC
native gel or EMSA = biological target: the molecule itself; assay: native gel or EMSA
[1] = biological target: the molecule itself; assay: single-particle cryo-EM, 2D class averages

Protein | ratio between dimer and tetramer population (AUC) | stoichiometry N (native gel or EMSA) | stoichiometry N [1]
B1 | 7 dimer:tetramer (7:1) | 4 | 
B2 |  |  | 4
